The values below come from paper PMC11999149.

The target of assay [1] is membrane truncated soluble E2 (sE2, residues 384-645) of the H77 isolate (hepatitis C virus, isolate H77, genotype 1a) (UniProt P27958). Description: SPR.
For assay [2], the target named is membrane truncated soluble E2 (sE2, residues 384-645) of the H77 isolate (Hepatitis C virus genotype 1a, isolate H77) (UniProt P27958). Description: SPR.
The next assay deals with AR2A. Put plainly: ELISA. The settings on record: IgG at its EC50; normalized using the signal of HCV1 at EC50. For orientation: An ELISA detects its analyte on a solid surface through an enzyme-linked reagent.
The target in assay [3] is AR3A full-length IgG (reference). Put plainly: ELISA. The settings on record: IgG at its EC50; normalized using the signal of HCV1 at EC50.

Where two headings read alike, the source gives them in different places.

On to “A3_9 full-length IgG1 (from UniProt P01857)”, for which, in assay [1], the Kd (as a rule, the equilibrium constant for the complex coming apart) came out at 0.0448 nM and the koff (usually the rate constant with which the complex falls apart) amounted to 1.02e-05 s⁻¹. On to AR3A Fab (reference), for which the dissociation constant (Kd) in assay [2] came out at 10 nM. Fab #2 (group I) (from UniProt P01857): in assay [1] (Fab), the Kd was determined as 0.19 nM and the koff turned out to be 2.08e-05 s⁻¹.

For the substance “Fab A2_11 (group II) (from UniProt P01857)”, in assay [1] (Fab), the equilibrium dissociation constant (Kd) amounted to 0.66 nM and the koff is 4.41e-05 s⁻¹.

Take Fab A3_9 (from UniProt P01857): in assay [1] (Fab), the Kd came to 1.6 nM and the off-rate constant (koff) was found to be 0.000119 s⁻¹. In assay [1] (Fab), “Fab A8_9 (group III) (from UniProt P01857)” displayed a Kd of 4.02 nM and a koff of 0.000299 s⁻¹.

In assay [1] (Fab), “Fab B1_9 (group II) (from UniProt P01857)” came in with a dissociation constant (Kd) of 2.62 nM and a koff of 0.000299 s⁻¹. With “Fab B1_11 (group I) (from UniProt P01857)”, in assay [1] (Fab), the equilibrium dissociation constant (Kd) worked out at 0.485 nM and the koff came to 3.33e-05 s⁻¹.

As to “detergent-extracted full-length E1/E2 of HCV isolate H77 (genotype 1a) (from UniProt P27958) C429A”, the percent of parent was found to be 43 % WT with AR2A and 3 % WT in assay [3].

As to “detergent-extracted full-length E1/E2 of HCV isolate H77 (genotype 1a) (from UniProt P27958) F442A”, the results for the percent of parent (with AR2A; in assay [3]) were 71 % WT and 2 % WT, respectively. On to “detergent-extracted full-length E1/E2 of HCV isolate H77 (genotype 1a) (from UniProt P27958) F627A”, for which the percent of parent with AR2A was 38 % WT; in assay [3] it was 68 % WT. On to “detergent-extracted full-length E1/E2 of HCV isolate H77 (genotype 1a) (from UniProt P27958) G436A”, for which the percent of parent was determined as 123 % WT in the assay with AR2A and 22 % WT in assay [3]. Turning to “detergent-extracted full-length E1/E2 of HCV isolate H77 (genotype 1a) (from UniProt P27958) G440A”, the percent of parent came out at 79 % WT in the assay with AR2A and 10 % WT in assay [3]. Regarding “detergent-extracted full-length E1/E2 of HCV isolate H77 (genotype 1a) (from UniProt P27958) K628A”, the percent of parent amounted to 24 % WT in the assay with AR2A and 63 % WT in assay [3].

Consider “detergent-extracted full-length E1/E2 of HCV isolate H77 (genotype 1a) (from UniProt P27958) L427A”, for which the percent of parent stood at 67 % WT with AR2A and 7 % WT in assay [3]. As to “detergent-extracted full-length E1/E2 of HCV isolate H77 (genotype 1a) (from UniProt P27958) L438A”, the percent of parent is 88 % WT in the assay with AR2A and 4 % WT in assay [3]. In the case of “detergent-extracted full-length E1/E2 of HCV isolate H77 (genotype 1a) (from UniProt P27958) L441A”, the values for the percent of parent (with AR2A; in assay [3]) were 85 % WT and 5 % WT, respectively.

In the case of “detergent-extracted full-length E1/E2 of HCV isolate H77 (genotype 1a) (from UniProt P27958) N428A”, the percent of parent in the assay with AR2A worked out at 70 % WT; in assay [3], 6 % WT. Consider “detergent-extracted full-length E1/E2 of HCV isolate H77 (genotype 1a) (from UniProt P27958) R630A”, for which the percent of parent came out at 43 % WT with AR2A and 84 % WT in assay [3]. For “detergent-extracted full-length E1/E2 of HCV isolate H77 (genotype 1a) (from UniProt P27958) T425A”, in that order: 77 % WT and 6 % WT. Turning to “detergent-extracted full-length E1/E2 of HCV isolate H77 (genotype 1a) (from UniProt P27958) T625A”, the percent of parent with AR2A came out at 28 % WT; in assay [3] it was 12 % WT. Taken in the same sequence, the figures for “detergent-extracted full-length E1/E2 of HCV isolate H77 (genotype 1a) (from UniProt P27958) W437A” were 98 % WT and 4 % WT.

Consider “detergent-extracted full-length E1/E2 of HCV isolate H77 (genotype 1a) (from UniProt P27958) Y485A”, for which the percent of parent in the assay with AR2A is 94 % WT; in assay [3], 76 % WT.
